Three molecules from patent US20140079691A1 can be followed below.

Assay in all cases: method not stated in Example 7
In experiment [1] the target is C345C subunit of complement protein C5.
Experiment [2] concerns the target β-NGF.
The target in experiment [3] is IL-17A.
Chain of IL-17A (Q16552 24-155): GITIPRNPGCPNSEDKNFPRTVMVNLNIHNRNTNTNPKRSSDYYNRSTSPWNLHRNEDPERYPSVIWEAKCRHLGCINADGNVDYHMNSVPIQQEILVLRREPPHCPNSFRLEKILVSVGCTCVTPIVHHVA

Chain of β-NGF (P01138 122-241): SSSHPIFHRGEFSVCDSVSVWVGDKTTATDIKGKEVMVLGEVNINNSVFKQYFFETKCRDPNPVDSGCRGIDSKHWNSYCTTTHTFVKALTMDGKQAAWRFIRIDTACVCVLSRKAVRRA
Chain of C345C subunit of complement protein C5 (P01031 1532-1676): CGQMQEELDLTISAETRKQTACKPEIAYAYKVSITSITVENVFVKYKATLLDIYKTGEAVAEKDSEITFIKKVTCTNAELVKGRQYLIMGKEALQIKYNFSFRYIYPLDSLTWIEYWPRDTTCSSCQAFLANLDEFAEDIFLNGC

B1: APE1775 (antibody, human IgG1, kappa, V domains shown)
VH: EVQLVESGGGLVQPGGSLILSCAASGFTFSSYAMTWVRQAPGKGLEWVCAISGSGSTYYADSVKGRFTCSRDNSKNTLYLQMNSLRAEDTAVYYCARRGLRYNYFDYWGAGTTVTVSS
VL: DVVLTQSPLSLAVLLGQPASISCRASQSVSSSYLAWYQQRPGQSPRLLIYGASSRATGVPDRFSGSGSGTDFTLKISRVEAEDVGVYFCQQYGRSLEYTFGGGTKLEIKR
A word on the Kd: it is the free concentration of one partner at which half of the binding sites on the other are occupied at equilibrium, for simple one-to-one binding. The low end stands for higher affinity, the high end for lower affinity. In the case of B1, the Kd in experiment [1] was found to be 5 nM.

B2: APE1661 (antibody, human IgG1, kappa, V domains shown)
VH: EVQLVESGGGLVQPGGSLILSCAASGFTFTTYNMNWVRQAPGKGLEWVCVISTGGSNTYYADSVKGRFTCSRDNSKNTLYLQMNSLRAEDTAVYYCARDGGYSSSTLYAMDAWGAGTTVTVSS
VL: DVVLTQSPLSLAVLLGQPASISCRASKNIYNALAWYQQRPGQSPRLLIYNTDRLHTGVPDRFSGSGSGTDFTLKISRVEAEDVGVYFCQHYFDYPRTFGGGTKLEIKR
As to B2, in experiment [2], the dissociation constant Kd was found to be 12 nM and the fold loss in β-NGF binding affinity (against the parental antibody, APE579 in Table 3) was 2 fold.

B3: APE1662 (antibody, human IgG1, kappa, V domains shown)
VH: EVQLVESGGGLVQPGGSLILSCAASGFTFSNHWMNWVRQAPGKGLEWVCAAINEDGSEKYYVGSVKVRFTCSRDNSKNTLYLQMNSLRAEDTAVYYCARDYYDILTDYYIHYWYFDLWGAGTTVTVSS
VL: DVVLTQSPLSLAVLLGQPASISCRASQSVSSSYLAWYQQRPGQSPRLLIYGASSRATGVPDRFSGSGSGTDFTLKISRVEAEDVGVYFCQQYGSSPLTFGGGTKLEIKR
Turning to B3, in experiment [3], the dissociation constant Kd was 0.21 nM and the fold improvement in antigen binding affinity (against the parental antibody, APE508 in Table 3) came to 1.6 fold.
